Data published in US20260263521A1 (AIMED BIO, published 2026).

Tests used:
[1] = biological target: T1, cynomolgus CD200R1 with dual His-tags (cynomolgus, UniProt G7NZT0 25-266); assay: SPR (Biacore CM5), His-tagged antigen captured by anti-histidine antibody, antibody as analyte, 1:1 Langmuir fit
T1 construct: Captured on the SPR chip by an anti-histidine antibody; also called CCD200R1-his; cCD200R1-his; not shown: dual His-tags
T1 sequence: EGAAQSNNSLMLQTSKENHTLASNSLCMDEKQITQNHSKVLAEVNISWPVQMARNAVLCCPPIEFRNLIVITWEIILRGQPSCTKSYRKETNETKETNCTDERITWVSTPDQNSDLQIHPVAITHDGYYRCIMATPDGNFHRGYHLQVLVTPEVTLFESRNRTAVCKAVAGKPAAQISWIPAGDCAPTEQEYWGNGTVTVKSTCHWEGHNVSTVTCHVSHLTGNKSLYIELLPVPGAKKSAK
Experimental: (§1) For the experiment, 30 μg/mL of an anti-histidine antibody was conjugated to a CM5 biacore chip via an amine bond while allowing to flow at 10 μl/min (10,000 RU). Then, 0.25 μg/mL of human or cynomolgus CD200R1 with dual His-tags was captured onto the completed chip for 60 seconds, and the binding ability of each antibody was analyzed. All experiments were performed by association of antibodies for 120 seconds and dissociation of antibodies for 600 seconds. The resulting graphs were fitted using a 1:1 Langmuir binding kinetic model (FIG. 16), and the kinetics of each antibody were calculated.

[2] = biological target: T2, human CD200R1 with dual His-tags (human, UniProt Q8TD46 25-265); assay: as above
T2 construct: Captured on the SPR chip by an anti-histidine antibody; also called hCD200R1-his; not shown: dual His-tags
T2 sequence (looked up): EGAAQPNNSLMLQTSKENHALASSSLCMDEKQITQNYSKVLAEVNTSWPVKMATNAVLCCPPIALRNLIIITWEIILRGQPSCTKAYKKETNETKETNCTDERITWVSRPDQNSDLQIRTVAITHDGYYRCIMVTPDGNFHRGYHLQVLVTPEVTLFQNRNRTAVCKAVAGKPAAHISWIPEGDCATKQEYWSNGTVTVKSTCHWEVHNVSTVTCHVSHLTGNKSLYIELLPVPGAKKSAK
Experimental: as §1

[3] = biological target: T3, monkey CD200R1 (ELISA antigen of Example 14) (monkey); assay: ELISA on monkey CD200R1, normalized absorbance at 450 nm, 0.0192-300 nM; panel 'Cyno CD200R1'
T3 chain: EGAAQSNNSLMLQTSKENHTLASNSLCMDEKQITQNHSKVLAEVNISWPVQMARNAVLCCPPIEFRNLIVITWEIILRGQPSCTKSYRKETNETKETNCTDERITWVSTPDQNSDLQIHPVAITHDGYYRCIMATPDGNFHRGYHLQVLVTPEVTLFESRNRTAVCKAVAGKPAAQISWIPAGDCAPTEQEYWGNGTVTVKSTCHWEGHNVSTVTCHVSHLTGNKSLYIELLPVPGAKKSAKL

[4] = biological target: T4, human CD200R1 expressed on cells (Jurkat-CD200R1, U937-CD200R1, HH cells) (human, UniProt Q8TD46 25-348); assay: flow cytometry, HH cells
T4 construct: whole, on cells; also called HH (CRL-2105); cell surface-expressed CD200R1
T4 sequence (looked up): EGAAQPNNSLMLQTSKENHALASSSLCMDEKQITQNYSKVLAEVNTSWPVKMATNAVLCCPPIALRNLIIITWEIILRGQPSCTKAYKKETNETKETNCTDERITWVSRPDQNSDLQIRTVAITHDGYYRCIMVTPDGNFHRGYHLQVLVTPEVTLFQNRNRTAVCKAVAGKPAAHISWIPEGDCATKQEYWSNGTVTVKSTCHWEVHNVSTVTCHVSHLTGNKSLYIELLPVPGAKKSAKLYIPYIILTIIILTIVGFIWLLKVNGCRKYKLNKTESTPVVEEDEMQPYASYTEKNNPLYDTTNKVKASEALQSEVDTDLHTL
Experimental: Two additional wells were treated with 10 μl of mouse IgG1K (BD, #555751) and 5 μl of commercial CD200R1 antibody (Biolegend, #329308) to determine CD200R1 expression on the cell line surface for cell quality control.
The antibodies were serially diluted 10-fold from a maximum concentration of 100 nM to 10 nM, 1 nM, […], and were added to the pre-seeded cells. After reaction for 1 hour at 4° C., the cells were treated with Alexa-647 goat anti-human IgG (H+L) cross-adsorbed secondary antibody (Invitrogen, #A21445) and incubated for an additional 30 minutes at 4° C. After washing twice with FACS buffer, flow cytometry was performed using a Novocyte Flow cytometer (Agilent). Using GraphPad Prism software, the EC₅₀ was determined using a nonlinear graph model of log (agonist) vs. response-variable slope, as shown in Table 32.

[5] = biological target: T4, human CD200R1 expressed on cells …; assay: flow cytometry on Jurkat-CD200R1 and HH cells, 500 nM antibody in IgG1 form
Method in brief: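 Cells at 1×10⁵ per well incubated with antibody 1 h at 4 °C, then Alexa-647 anti-human IgG (H+L) secondary for 30 min at 4 °C. After two washes, binding read by flow cytometry.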

B1: P001009 (IgG) (antibody, V domains shown)
VH: EVQLLESGGGLVQPGGSLRLSCAASGFTFSSYDMSWVRQAPGKGLEWVSWISHGGGSIYYADSVKGRFTISRDNSKNTLYLQMNSLRAEDTAVYYCARDAPAYSAPLFDYWGQGTLVTVSS
VL: QSVLTQPPSASGTPGQRVTISCSGSSSNIGNNAVNWYQQLPGTAPKLLIYYDSNRPSGVPDRFSGSKSGTSASLAISGLRSEDEADYYCAAWDDSLSGYVFGGGTKLTVL
notes: also called P001009 WT; P001009 wt
[1]
  Kd: 2.08 nM
  koff: 0.0117 s⁻¹
  kon: 5.63e+06 M⁻¹ s⁻¹
[2]
  Kd: 0.0475 nM
  koff: 0.000134 s⁻¹
  kon: 2.81e+06 M⁻¹ s⁻¹
[3]
  EC50 (read off the curve): ~5 nM
[4]
  EC50: 0.19 nM
[5]
  MFI normalized to P001017 (chimeric OX108), %: > 50%
